Article PMC10851674 (Analytical chemistry, 2022)

Molecular target: T1, rat cytochrome P450 reductase (rat, UniProt P00388 1-678)
T1 sequence (looked up): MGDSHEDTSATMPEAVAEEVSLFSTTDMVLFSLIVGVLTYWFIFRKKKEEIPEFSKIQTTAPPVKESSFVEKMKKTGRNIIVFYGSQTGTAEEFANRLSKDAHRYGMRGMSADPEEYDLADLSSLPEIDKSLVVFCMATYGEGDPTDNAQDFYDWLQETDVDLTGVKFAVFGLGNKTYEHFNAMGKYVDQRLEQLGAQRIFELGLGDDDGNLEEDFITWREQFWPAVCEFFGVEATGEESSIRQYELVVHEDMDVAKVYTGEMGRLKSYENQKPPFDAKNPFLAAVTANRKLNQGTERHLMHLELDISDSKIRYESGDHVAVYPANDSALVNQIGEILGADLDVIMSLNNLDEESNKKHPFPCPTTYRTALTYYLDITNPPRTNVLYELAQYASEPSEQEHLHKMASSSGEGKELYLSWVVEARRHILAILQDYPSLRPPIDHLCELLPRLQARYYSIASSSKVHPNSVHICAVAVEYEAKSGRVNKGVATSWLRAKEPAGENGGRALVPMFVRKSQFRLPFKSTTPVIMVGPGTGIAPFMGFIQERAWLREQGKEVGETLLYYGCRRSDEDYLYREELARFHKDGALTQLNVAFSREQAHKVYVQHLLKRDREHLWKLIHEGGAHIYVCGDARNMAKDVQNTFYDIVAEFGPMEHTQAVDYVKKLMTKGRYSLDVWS
Experiment: SEC

binding result: binds
B1: rabbit cytochrome P450 2B4 (enzyme, UniProt P00178 1-491, looked up)
chain: MEFSLLLLLAFLAGLLLLLFRGHPKAHGRLPPGPSPLPVLGNLLQMDRKGLLRSFLRLREKYGDVFTVYLGSRPVVVLCGTDAIREALVDQAEAFSGRGKIAVVDPIFQGYGVIFANGERWRALRRFSLATMRDFGMGKRSVEERIQEEARCLVEELRKSKGALLDNTLLFHSITSNIICSIVFGKRFDYKDPVFLRLLDLFFQSFSLISSFSSQVFELFPGFLKHFPGTHRQIYRNLQEINTFIGQSVEKHRATLDPSNPRDFIDVYLLRMEKDKSDPSSEFHHQNLILTVLSLFFAGTETTSTTLRYGFLLMLKYPHVTERVQKEIEQVIGSHRPPALDDRAKMPYTDAVIHEIQRLGDLIPFGVPHTVTKDTQFRGYVIPKNTEVFPVLSSALHDPRYFETPNTFNPGHFLDANGALKRNEGFMPFSLGKRICLGEGIARTELFLFFTTILQNFSIASPVPPEDIDLTPRESGVGNVPPSYQIRFLAR
